16 sequences from the DeepSol protein solubility set can be followed below.

This data set can be described thus: soluble on expression in E. coli; label from the status in PepcDB or PDB records.
For the sequence “MRFLHTADWQLGMTRHFLNGEAQPRYSASRREAVASLGEIAKRTGAEFVVVSGDVFEHNQLAPRDVSQSLEAMRAIGVPVYLLPGNHDPLDASSVYTSALFVAERPDNVVVLDRAGVHEVRPGVQIVAAPWRSKAPTSDLIGDVLADLPADGVTRVLVGHGGVDILDPDKNKPSLIRMAAVEDALARGAVHYVALGDKHSRTEVGGSGRVWYSGSPEVTNYDDIESDPGHVLVVDIDENDARRAVRVESEKVGRWRFVTLRRSVDTDRDIADLDLNLDLLDDKERTVVRLALTGSLTVTDKAKLDECLDRYARLFAALTTWERHTDIAVIPADGEFDDLGIGGFAAAAVDELVATARSEAAEAEDARAALGLLLRLVDRDKGAALEHHHHHH”, the “soluble on expression in E. coli” value was “soluble”.
Turning to “SEEGSNKREGYNDQKQQARAGCGKELAVEEMIAAVSERKKGCCPPPPPPHGAPATPARNRPQTQGRGAAAPVVGWPPIRSFRRNLASSSSSKHSPEPQNDNANAKVTLTCKKNPLVKINMDGIPIGRKIDLAAYNSYDGLSSAVKQLFHGFLQAQKDQTNAQIAQQGADDKIFYQLLDGSGEYTLVYEDSEGDRMLVGDVPWKVFVSTAKRLRVLRSSELSHTLIGATARV”, the “soluble on expression in E. coli” value is given as “soluble”.
With “MGSDKIHHHHHHMEHGTESFWTDIKRYEDILAKDPGSYCFAPLSELYRKVGLLDDAIMTARTGIGQHPEYVGGYMALGRACFEKGERTESRAALEKVVRVTPDNLLAQKLLSQIYVDAGESDLARRCLEIILSLSPGDLESKLMLDAMCRQPRENADRADDLFNEMGAAAAIDLEDESLLEEIEIIEELVDEVVDEEDLAAFTAHAPPPPLAEESFADVLLDEEPVANADVPSPRDVLSTGTVADLYIAQGFPKKALAIYRDLLDADPLNEDIRNRMVDLKKRIDEDEARARESVLAEAVSATDTTAQIQGDLTADREAFKEEAASGFAVESAHEVDIPLEVAVSAESSLNVAEEKEASAAHVVSALEGWLDSIRRIRQCRSVLH” the entry was “not soluble”.
With “MIVTTAGRTNKEMTDYANEVAAELNASFVKRNDIPVHKLHEQYEQDVLVVGKNRLAIYPKGTEESFFFHPNSAMFRVKRLMRGEHDPFVQATQLERGMTVLDCTLGMASDSIVASYVVGESGKVTGLEGNEYMAYIMENGLKTWSSSVSEIDEAMQRIQVKQTEHFSFLAQCEDNSYDVVYLDPMFEETVIESDGIKGLKHFALYHDITDETIAEAKRVARKRVVLKDHFRSSRFEKHNFYVYKRKSAKFHFGVIDPC” the entry was “not soluble”; with “YGNMTEDHVMHLLQNADPLKVYPPLKGSFPENLRHLKNTMETIDWKVFESWMHHWLLFEMSRHSLEQKPTDAPPK”, “soluble”; with “IKPGAKMGVIGSGIASVYAKEALQELGLEASFLKIGTYPVPKKLILELLSTVDTVLIFEELEPVVEEQVRILAQEAGLEVSVLGKEGGFVSREGELDVSAFLEALRKAFDLDIEPDSGKVPLELAPRPPSLCAGCSHRATFYSMKKVFGKDAIYPSDIGCYTLGIQSGTVETTLCMGSSISIASGLYHAGEKRPICCSIGDSTFFHTGMNSLLNAVFNKANITVTILDNRITAMTGHQPNPGVGFTVTGEPTVEVSLAELCKAMGAGFVTVV”, “not soluble”.
Consider “ELKDSYVDYTLLYDMIANRIGIEEAVVENGALRLMKNQVWAYDFLPHMLIAGGTGGGKTYFLLTIIEALLKSDAELFILDPKNADLADLGTIMTHVYSQKEQISACVEDFYERMMVRSRLMKEMPNYKTGENYAYLGLSPNFLVFDEYVAYMEMLTTKESAVILNKLKQIVMLGRQSGFFLILACQRPDA”, for which the “soluble on expression in E. coli” value is recorded as “not soluble”.
In the case of “MATLEITDIALVQPSHQPLSNDQTLSLSHLDNDNNLHVSFRYLRVYSSSSSTVAGESPSAVVSASLATALVHYYPLAGSLRRSASDNRFELLCSAGQSVPLVNATVNCTLESVGYLDGPDPGFVERLVPDPTREEGMVNPCILQVTMFQCGGWVLGASIHHAICDGLGASLFFNAMAELARGATKISIEPVWDRERLLGPREKPWVGAPVRDFLSLDKDFDPYGQAIGDVKRDCFFVTDDSLDQLKAQLLEKSGLNFTTFEALGAYIWRAKVRAAKTEEKENVKFVYSINIRRLMNPPLPKGYWGNGCVPMYAQIKAGELIEQPIWKTAELIKQSKSNTSDEYVRSFIDFQELHHKDGINAGTGVTGFTDWRYLGHSTIDFGWGGPVTVLPLSNKLLGSMEPCFFLPYSTDAAAGSKKDSGFKVLVNLRESAMPEFKEAMDKFHKGEFALS”, the “soluble on expression in E. coli” value is recorded as “soluble”.
With “MKKVALVTGAGQGIGKAIALRLVKDGFAVAIADYNDATAKAVASEINQAGGHAVAVKVDVSDRDQVFAAVEQARKTLGGFDVIVNNAGVAPSTPIESITPEIVDKVYNINVKGVIWGIQAAVEAFKKEGHGGKIINACSQAGHVGNPELAVYSSSKFAVRGLTQTAARDLAPLGITVNGYCPGIVKTPMWAEIDRQVSEAAGKPLGYGTAEFAKRITLGRLSEPEDVAACVSYLASPDSDYMTGQSLLIDGGMVFN” the entry was “soluble”; with “MIESERKQIIDLIKKEVIPAIGCTEPIAVALCVAKAAETLGMKPEKIEVLLSANILKNAMGVGIPGTDMVGLPIAVALGALIGRSEYQLEVLRDCTPEAVEQGKLFIAEKRICISLKEDITEKLYIEVICTAGSQKATAVIAGGHTTFVYIATDEKVLLDKQQTANEEEEDASLELNLRKVYDFALTSPLDEIRFILDTARLNKAAAEQAFKGNYGHSLGKMLRGTYEHKVMGDSVFSHILSYTSAACDARMAGAMIPVMSNSGSGNQGISATLPVVVFAEENGKTEEELIRALMLSHLTVIYIKQSLGRLSALCGCVVAATGSSCGITWLMGGNYNQVAFAVQNMIANLTGMICDGAKPSCALKVTTGVSTAVLSAMMAMEDRCVTSVEGIIDEDVDQSIRNLTRIGSQAMNETDKMVLDIMTHKGGC”, “not soluble”.
With “MYTNSDFVVIKALEDGVNVIGLTRGADTRFHHSEKLDKGEVLIAQFTEHTSAIKVRGKAYIQTRHGVIESEGKKAAAAAAA” the entry was “soluble”; with “MGSDKIHHHHHHMSQFEQDAHLKQQSDRALSDHELQADHTRQKTHELPAHFDFQQAGKQVLSIERDGLAQLDQYIDDNFTLACKNIFHCKGKVVVMGMGKSGHIGCKIAATFASTGTPAFFVHPGEASHGDLGMVTPHDIVIAISNSGESHEILSLIPVLKRQKVFLICMTSAPESTMGKAADIHLCVHVPQEACPLGLAPTTSTTATLVMGDALAVALLQARGFTAEDFALSHPGGALGRKLLLRVSDIMHSGDEIPHVPHDASLRDALVEITRKNLGMTVICEADMKIQGIFTDGDLRRIFDMNIDLNSARIADVMTAGGIRVAPQTLAVDALNLMQSRHITSVLVAENDRLVGIVHMHDMLRAGVV”, “not soluble”; with “HKDFTWNTTLSATWSKEKIDKLPDGDLISENLFTGEPIHAIYGYKYAGIWGSDTPKETLDAYGVNPGFIKIETVDKNGDGGVHKYSTDDRQILGHTNPDWIIGLNNSFTYKNFDLSVFAMARYGQTINSDLLGYYTAEQSVTKNQLAGVDYWTEDNQGAYFPRPGTGDEQKTVYPSLRVHDGSFIKIKNITLGYTLPANISRKVLMEKCRIYATAYNPFIFVKDKQLKDTDPETNGSDAFPTYRQFVFGVNLTF”, “not soluble”.
For “MGSDKIHHHHHHMKIDRLIGIITILLQKERATIPQLAERFEVSCRTIQRDIDAIGQAGIPIVSRQGYGGGLSIADGYKLDKTVLTKKELQAILTGIRSIDSISKTTYGQTLIEKFANGKAAVLAEQDMILIDLASWYQDSLSDKIEQLRQAIFNREKVFFVYYSDKGESERLIEPYLILFKWAAWYVYGYCLTKNEYRLFKLNRLWKLKNTNLTYIPRNIPEGKLEFERYFQTEEIRLTALFDARAKYRLIEEYGPECFTVSEPDKLLFQRSFSNPEYLLQWLLSFGDRVRVIEPPELKANIQEHAKNMLRQDD”, the “soluble on expression in E. coli” value was “not soluble”.
Under “MYAYDIYEPIGRKDGEIFPVIFALHGFGGDELDMAGRLELLMDRFVVVSMRGDVEYGPTYGFYHMVTEGDPNAREVDYTSLRVAEFIDEVCNDYVSIDKNQIFLVGFDQGAVLTISIMQSYGGQYKAAALLSGRLPHYLEERPANLMLKDKRIFIGHGIEDAVIQIAEAEEIAQFFQKMGCNVEKHSYFVGHNVNEAEEDDLYSWFESFLP” stands “not soluble”; under “SLSERVRTYWIIIELKHKAREKPYDSKSLRTALQKEITTRYQLDPKFITSILYENNVITIDLVQNSSQKTQNDVDIADVAYYFEKDVKGESLFHSKKMDLTVNGEQLDLDPGQTLIYYVDEKAPEFSEG”, “soluble”.
